Measurements taken from patent US20230406885A1, “CYCLIC PEPTIDES FOR TRAPPING INTERLEUKIN-1 BETA” (MERCK SHARP & DOHME LLC, priority 2022, published 2023).
*1 amine or outer side, *2 acyl side, *3 side chain or, on linkers, in order; H or OH if unused. Primed or numbered codes have the meaning given here. [ ]: non-standard residue; d: D form. aMeNle = (S)-2-amino-2-methylhexanoic acid (alpha-methyl-norleucine), CCCC[C@](C)(N[*:1])C(=O)[*:2]; Phe(4-(trans-4-COOH-cHex)) = N[C@@H](Cc1ccc([C@H]2CC[C@H](C(=O)O)CC2)cc1)C(=O)O; DapAc = (S)-3-acetamido-2-aminopropanoic acid, CC(=O)NC[C@H](N[*:1])C(=O)[*:2]; Phe(4-(4-Ac-piperazinyl)) = CC(=O)N1CCN(c2ccc(C[C@H](N)C(=O)O)cc2)CC1; Pro(trans-4-NH2) = O=C([C@@H]1C[C@@H](N[*:3])CN1[*:1])[*:2]; Bip(4'-COOH) = N[C@@H](Cc1ccc(-c2ccc(C(=O)O)cc2)cc1)C(=O)O; 1Nal(3S-Me) = C[C@@H](c1cccc2ccccc12)[C@H](N)C(=O)O; Ala(indolin-1-yl) = N[C@@H](CN1CCc2ccccc21)C(=O)O; Phe(4-COOH) = N[C@@H](Cc1ccc(C(=O)O)cc1)C(=O)O; h3Pal(5-CN) = N#Cc1cncc(CC[C@H](N)C(=O)O)c1; hTyr = N[C@@H](CCc1ccc(O)cc1)C(=O)O; hCha = N[C@@H](CCC1CCCCC1)C(=O)O; 4Pal = N[C@@H](Cc1ccncc1)C(=O)O; Cha = N[C@@H](CC1CCCCC1)C(=O)O; dαMeDab′ = not defined here; dDab = NCC[C@@H](N)C(=O)O; Nle = CCCC[C@H](N)C(=O)O; dDap = NC[C@@H](N)C(=O)O; dNMeA = CN[C@H](C)C(=O)O; Dab = NCC[C@H](N)C(=O)O

target: Recombinant human IL-1β (BioLegend 579404) (human, UniProt P01584 117-269); experiment: cell-based or functional assay

Binder | MRC5 IC50
cyclo([Phe(4-(trans-4-COOH-cHex))]W[Phe(4-COOH)]G[Pro(trans-4-NH2)][1Nal(3S-Me)]D[dNMeA]G[Bip(4'-COOH)][4Pal]G[dDab][Nle]) (SMILES CCCC[C@@H]1NC(=O)[C@@H](CCN)NC(=O)CNC(=O)[C@H](Cc2ccncc2)NC(=O)[C@H](Cc2ccc(-c3ccc(C(=O)O)cc3)cc2)NC(=O)CNC(=O)[C@@H](C)N(C)C(=O)[C@H](CC(=O)O)NC(=O)[C@H]([C@@H](C)c2cccc3ccccc23)NC(=O)[C@@H]2C[C@@H](N)CN2C(=O)CNC(=O)[C@H](Cc2ccc(C(=O)O)cc2)NC(=O)[C@H](Cc2c[nH]c3ccccc23)NC(=O)[C@H](Cc2ccc([C@H]3CC[C@H](C(=O)O)CC3)cc2)NC1=O) [SEQ ID NO: 197 (Example No. 197)] | 0.024 nM
cyclo([Phe(4-(4-Ac-piperazinyl))]W[Phe(4-COOH)]G[Pro(trans-4-NH2)][1Nal(3S-Me)]D[dNMeA]G[Bip(4'-COOH)][4Pal]G[dαMeDab′][hCha]) [SEQ ID NO: 199 (Example No. 199)] | 0.024 nM
cyclo([Phe(4-(4-Ac-piperazinyl))]W[Phe(4-COOH)]G[Pro(trans-4-NH2)][1Nal(3S-Me)]D[dNMeA]G[Bip(4'-COOH)][4Pal]G[dDab][aMeNle]) (SMILES CCCC[C@]1(C)NC(=O)[C@@H](CCN)NC(=O)CNC(=O)[C@H](Cc2ccncc2)NC(=O)[C@H](Cc2ccc(-c3ccc(C(=O)O)cc3)cc2)NC(=O)CNC(=O)[C@@H](C)N(C)C(=O)[C@H](CC(=O)O)NC(=O)[C@H]([C@@H](C)c2cccc3ccccc23)NC(=O)[C@@H]2C[C@@H](N)CN2C(=O)CNC(=O)[C@H](Cc2ccc(C(=O)O)cc2)NC(=O)[C@H](Cc2c[nH]c3ccccc23)NC(=O)[C@H](Cc2ccc(N3CCN(C(C)=O)CC3)cc2)NC1=O) [SEQ ID NO: 200 (Example No. 200)] | 0.034 nM
cyclo([Phe(4-(4-Ac-piperazinyl))]W[Phe(4-COOH)]G[Pro(trans-4-NH2)][1Nal(3S-Me)]D[dNMeA]G[Bip(4'-COOH)][Ala(indolin-1-yl)]G[dDab][hTyr]) (SMILES CC(=O)N1CCN(c2ccc(C[C@@H]3NC(=O)[C@H](CCc4ccc(O)cc4)NC(=O)[C@@H](CCN)NC(=O)CNC(=O)[C@H](CN4CCc5ccccc54)NC(=O)[C@H](Cc4ccc(-c5ccc(C(=O)O)cc5)cc4)NC(=O)CNC(=O)[C@@H](C)N(C)C(=O)[C@H](CC(=O)O)NC(=O)[C@H]([C@@H](C)c4cccc5ccccc45)NC(=O)[C@@H]4C[C@@H](N)CN4C(=O)CNC(=O)[C@H](Cc4ccc(C(=O)O)cc4)NC(=O)[C@H](Cc4c[nH]c5ccccc45)NC3=O)cc2)CC1) [SEQ ID NO: 198 (Example No. 198)] | 0.021 nM
cyclo([Phe(4-(4-Ac-piperazinyl))]W[Phe(4-COOH)]G[Pro(trans-4-NH2)][1Nal(3S-Me)]D[dNMeA]G[Bip(4'-COOH)][4Pal]G[dDab][hCha]) (SMILES CC(=O)N1CCN(c2ccc(C[C@@H]3NC(=O)[C@H](CCC4CCCCC4)NC(=O)[C@@H](CCN)NC(=O)CNC(=O)[C@H](Cc4ccncc4)NC(=O)[C@H](Cc4ccc(-c5ccc(C(=O)O)cc5)cc4)NC(=O)CNC(=O)[C@@H](C)N(C)C(=O)[C@H](CC(=O)O)NC(=O)[C@H]([C@@H](C)c4cccc5ccccc45)NC(=O)[C@@H]4C[C@@H](N)CN4C(=O)CNC(=O)[C@H](Cc4ccc(C(=O)O)cc4)NC(=O)[C@H](Cc4c[nH]c5ccccc45)NC3=O)cc2)CC1) [SEQ ID NO: 201 (Example No. 201)] | 0.03 nM

Next, values leading:

MRC5 IC50 | Binder
0.01 nM | cyclo([Phe(4-(4-Ac-piperazinyl))]W[Phe(4-COOH)]G[Pro(trans-4-NH2)][1Nal(3S-Me)]D[dNMeA]G[Bip(4'-COOH)][DapAc]L[dDap][h3Pal(5-CN)]) (SMILES CC(=O)NC[C@@H]1NC(=O)[C@H](Cc2ccc(-c3ccc(C(=O)O)cc3)cc2)NC(=O)CNC(=O)[C@@H](C)N(C)C(=O)[C@H](CC(=O)O)NC(=O)[C@H]([C@@H](C)c2cccc3ccccc23)NC(=O)[C@@H]2C[C@@H](N)CN2C(=O)CNC(=O)[C@H](Cc2ccc(C(=O)O)cc2)NC(=O)[C@H](Cc2c[nH]c3ccccc23)NC(=O)[C@H](Cc2ccc(N3CCN(C(C)=O)CC3)cc2)NC(=O)[C@H](CCc2cncc(C#N)c2)NC(=O)[C@@H](CN)NC(=O)[C@H](CC(C)C)NC1=O) [SEQ ID NO: 205 (Example No. 205)]
0.012 nM | cyclo([Phe(4-(4-Ac-piperazinyl))]W[Phe(4-COOH)]G[Pro(trans-4-NH2)][1Nal(3S-Me)]D[dNMeA]G[Bip(4'-COOH)][Dab]L[dA][hCha]) (SMILES CC(=O)N1CCN(c2ccc(C[C@@H]3NC(=O)[C@H](CCC4CCCCC4)NC(=O)[C@@H](C)NC(=O)[C@H](CC(C)C)NC(=O)[C@H](CCN)NC(=O)[C@H](Cc4ccc(-c5ccc(C(=O)O)cc5)cc4)NC(=O)CNC(=O)[C@@H](C)N(C)C(=O)[C@H](CC(=O)O)NC(=O)[C@H]([C@@H](C)c4cccc5ccccc45)NC(=O)[C@@H]4C[C@@H](N)CN4C(=O)CNC(=O)[C@H](Cc4ccc(C(=O)O)cc4)NC(=O)[C@H](Cc4c[nH]c5ccccc45)NC3=O)cc2)CC1) [SEQ ID NO: 203 (Example No. 203)]
0.009 nM | cyclo([Phe(4-(4-Ac-piperazinyl))]W[Phe(4-COOH)]G[Pro(trans-4-NH2)][1Nal(3S-Me)]D[dNMeA]G[Bip(4'-COOH)][DapAc]K[dA][h3Pal(5-CN)]) (SMILES CC(=O)NC[C@@H]1NC(=O)[C@H](Cc2ccc(-c3ccc(C(=O)O)cc3)cc2)NC(=O)CNC(=O)[C@@H](C)N(C)C(=O)[C@H](CC(=O)O)NC(=O)[C@H]([C@@H](C)c2cccc3ccccc23)NC(=O)[C@@H]2C[C@@H](N)CN2C(=O)CNC(=O)[C@H](Cc2ccc(C(=O)O)cc2)NC(=O)[C@H](Cc2c[nH]c3ccccc23)NC(=O)[C@H](Cc2ccc(N3CCN(C(C)=O)CC3)cc2)NC(=O)[C@H](CCc2cncc(C#N)c2)NC(=O)[C@@H](C)NC(=O)[C@H](CCCCN)NC1=O) [SEQ ID NO: 204 (Example No. 204)]
0.029 nM | cyclo([Phe(4-(4-Ac-piperazinyl))]W[Phe(4-COOH)]G[Pro(trans-4-NH2)][1Nal(3S-Me)]D[dNMeA]G[Bip(4'-COOH)][Cha]G[dDab][hTyr]) (SMILES CC(=O)N1CCN(c2ccc(C[C@@H]3NC(=O)[C@H](CCc4ccc(O)cc4)NC(=O)[C@@H](CCN)NC(=O)CNC(=O)[C@H](CC4CCCCC4)NC(=O)[C@H](Cc4ccc(-c5ccc(C(=O)O)cc5)cc4)NC(=O)CNC(=O)[C@@H](C)N(C)C(=O)[C@H](CC(=O)O)NC(=O)[C@H]([C@@H](C)c4cccc5ccccc45)NC(=O)[C@@H]4C[C@@H](N)CN4C(=O)CNC(=O)[C@H](Cc4ccc(C(=O)O)cc4)NC(=O)[C@H](Cc4c[nH]c5ccccc45)NC3=O)cc2)CC1) [SEQ ID NO: 202 (Example No. 202)]
